According to US20140186359A1 (TORAY INDUSTRIES, published 2014):

T1: human CAPRIN-1 expressed on the surface of human cancer cells (human, UniProt Q14444 2-709)
T1 sequence: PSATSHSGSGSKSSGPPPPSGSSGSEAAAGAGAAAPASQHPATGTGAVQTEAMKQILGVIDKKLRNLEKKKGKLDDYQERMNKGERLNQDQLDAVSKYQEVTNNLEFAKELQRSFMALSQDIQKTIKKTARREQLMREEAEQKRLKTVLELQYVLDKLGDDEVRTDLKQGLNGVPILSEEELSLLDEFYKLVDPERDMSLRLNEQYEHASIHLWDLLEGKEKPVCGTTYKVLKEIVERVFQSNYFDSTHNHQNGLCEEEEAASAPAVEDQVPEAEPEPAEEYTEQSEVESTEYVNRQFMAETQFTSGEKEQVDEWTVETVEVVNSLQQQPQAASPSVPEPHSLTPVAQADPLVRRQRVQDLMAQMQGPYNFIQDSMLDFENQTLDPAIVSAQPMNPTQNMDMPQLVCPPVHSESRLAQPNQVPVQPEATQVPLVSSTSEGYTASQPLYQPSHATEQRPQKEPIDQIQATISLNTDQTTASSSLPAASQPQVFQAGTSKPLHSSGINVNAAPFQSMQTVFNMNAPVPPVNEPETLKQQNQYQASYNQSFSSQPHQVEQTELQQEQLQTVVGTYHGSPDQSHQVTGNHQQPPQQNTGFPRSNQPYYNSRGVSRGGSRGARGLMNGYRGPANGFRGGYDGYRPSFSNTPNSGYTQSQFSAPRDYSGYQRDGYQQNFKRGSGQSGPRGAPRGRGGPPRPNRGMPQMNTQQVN

B1: human-mouse chimeric comparative monoclonal antibody 6 (antibody, human IgG1, kappa)
heavy: not shown
light: DRVSITCKASQNVRTAVAWYQQKPRQSPKALIYLASNRDTGLPDRFPGRGSGTDFTLNITNVQSEDLEDYFCLQHCNYPNEFRGCTKVPITVAAPSVFIFPPSDEQLKSGTASVVCLLNNFYPREAKVQWKVDNALQSGNSQESVTEQDSKDSTYSLSSTLTLSKADYEKHKVYACEVTHQGLSSPVTKSFNRGEC
B2: human-mouse chimeric comparative monoclonal antibody 4 (antibody, human IgG1, kappa, V domains shown)
VH: EVQLHQFGAELVKPGASVKISCKASGYTFTDYNMDWVKQSHGKSLEWIGDINPNYDSTSYNQKFKGKATLTVDKSSSTAYMELRSLTSEDTAVYYCARSRSYDYEGFAYWGQGTLVTVSA
VL: SGDRVSLSCRASQSISNYLHWYQQKSHESPRLLIKYASQSISGIPSRFSGSGSGTDFTLSINSVETEDFGMYFCQQSNSWPYTFGAGTKLEIKQ
B3: human-mouse chimeric comparative monoclonal antibody 8 (antibody, human IgG1, kappa)
heavy: not shown
light: EFHAVSLGQRATISCRASESVDSYGNSFMHWYQQKPGQPPKLLIYRASNLESGIPARFSGSGSRTDFTLTINPVEADDVATYYCQQSNEDPGRSEVVPSWRSNKTVAAPSVFIFPPSDEQLKSGTASVVCLLNNFYPREAKVQWKVDNALQSGNSQESVTEQDSKDSTYSLSSTLTLSKADYEKHKVYACEVTHQGLSSPVTKSFNRGEC
B4: human-mouse chimeric comparative monoclonal antibody 7 (antibody, human IgG1, kappa, V domains shown)
VH: LQESGAELARPGASVKLSCKASGYTFTSYWMQWVKQRPGQGLEWIGAIYPGDGDTRYTQKFKGKATLTADKSSSTAYMQLSSLASEDSAVYYCARGEYGNYFAYWGQGTTVTVSS
VL: TSDASLGERVTITCKASQDINSYLSWFQQKPGKSPKTLIYRANRLVDGVPSRFSGSGSGQDYSLTISSLEYEDMGIYYCLQYDEFPLTFGGGTKLEIKQ
B5: human-mouse chimeric comparative monoclonal antibody 5 (antibody, human IgG1, kappa)
heavy: not shown
light: GLFCSVERCHYQLQSSQNLLSIVNRYHYMSGNPPKLLVYPALLIYEASITKSCVPDRFTRSGSGTNFTLTINFVHADDLIFYYCQHNRGSFLPSSSVQVPRRRSNTVAAPSVFIFPPSDEQLKSGTASVVCLLNNFYPREAKVQWKVDNALQSGNSQESVTEQDSKDSTYSLSSTLTLSKADYEKHKVYACEVTHQGLSSPVTKSFNRGEC
For ADCC cytotoxic activity (51Cr release) against Caki-2 in this document: test concentration or dose not given here.
For ADCC cytotoxic activity (51Cr release) against HCT-116 in this document: test concentration or dose not given here.
For ADCC cytotoxic activity (51Cr release) against MCF7 in this document: test concentration or dose not given here.
For ADCC cytotoxic activity (51Cr release) against MIAPaCa-2 in this document: test concentration or dose not given here.

These binders were tested against T1, human CAPRIN-1 expressed on the surface … (assay: cell-based or functional assay).
In the case of B1, the “ADCC cytotoxic activity (51Cr release) against Caki-2” value is reported as < 8%, the “ADCC cytotoxic activity (51Cr release) against HCT-116” value is reported as < 3% and the “ADCC cytotoxic activity (51Cr release) against MCF7” value is reported as < 5%. For the same binder, the “ADCC cytotoxic activity (51Cr release) against MIAPaCa-2” value was 7%, the “ADCC cytotoxic activity (51Cr release) against QG56” value was < 5% and the “ADCC cytotoxic activity (51Cr release) against all other cancer cell lines listed” value was < 4%.
For B2, the “ADCC cytotoxic activity (51Cr release) against Caki-2” value was < 8%, the “ADCC cytotoxic activity (51Cr release) against HCT-116” value was < 3% and the “ADCC cytotoxic activity (51Cr release) against MCF7” value was < 5%. For the same binder, the “ADCC cytotoxic activity (51Cr release) against MIAPaCa-2” value was 7%, the “ADCC cytotoxic activity (51Cr release) against QG56” value was < 5% and the “ADCC cytotoxic activity (51Cr release) against all other cancer cell lines listed” value was < 4%.
With B3 the “ADCC cytotoxic activity (51Cr release) against Caki-2” value was < 8%, the “ADCC cytotoxic activity (51Cr release) against HCT-116” value was < 3% and the “ADCC cytotoxic activity (51Cr release) against MCF7” value was < 5%. For the same binder, the “ADCC cytotoxic activity (51Cr release) against MIAPaCa-2” value was 7%, the “ADCC cytotoxic activity (51Cr release) against QG56” value was < 5% and the “ADCC cytotoxic activity (51Cr release) against all other cancer cell lines listed” value was < 4%.
For B4, the “ADCC cytotoxic activity (51Cr release) against Caki-2” value was < 8%, the “ADCC cytotoxic activity (51Cr release) against HCT-116” value was < 3% and the “ADCC cytotoxic activity (51Cr release) against MCF7” value was < 5%. The “ADCC cytotoxic activity (51Cr release) against MIAPaCa-2” value was 7%, the “ADCC cytotoxic activity (51Cr release) against QG56” value was < 5% and the “ADCC cytotoxic activity (51Cr release) against all other cancer cell lines listed” value was < 4%.
B5 was tested, and the “ADCC cytotoxic activity (51Cr release) against Caki-2” value was < 8%, the “ADCC cytotoxic activity (51Cr release) against HCT-116” value was < 3% and the “ADCC cytotoxic activity (51Cr release) against MCF7” value was < 5%. The “ADCC cytotoxic activity (51Cr release) against MIAPaCa-2” value was 7%, the “ADCC cytotoxic activity (51Cr release) against QG56” value was < 5% and the “ADCC cytotoxic activity (51Cr release) against all other cancer cell lines listed” value was < 4%.
